Test results: patent publication US20110165066A1 (AbbVie / Abbott, published 2011)
“And” between values parts separate entries of the source, which are not always exact repeats. Equal values may be shown once.

Key:
[1] = molecular target: T1, human IL-13 variant (R130Q) (human, UniProt P35225 35-146); experiment: SPR (Biacore), mAb captured, IL-13 as analyte; row shifted, read as variant IL-13 columns
T1 construct: called R110Q in the assay descriptions (mature numbering); also called h IL-13v; hIL-13v
Description: (§1) The BIACORE assay (Biacore, Inc, Piscataway, N.J.) determines the affinity of antibodies with kinetic measurements of on-, off-rate constants. […] All chemicals were obtained from Biacore® AB (Uppsala, Sweden) or otherwise from a different source as described in the text. Approximately 5000 RU of goat anti-mouse IgG, (Fcγ), fragment specific polyclonal antibody (Pierce Biotechnology Inc, Rockford, Ill.) diluted in 10 mM sodium acetate (pH 4.5) was directly immobilized across a CM5 research grade biosensor chip using a standard amine coupling kit according to manufacturer's instructions and procedures at 25 μg/ml. Unreacted moieties on the biosensor surface were blocked with ethanolamine. Modified carboxymethyl dextran surface in flowcell 2 and 4 was used as a reaction surface. Unmodified carboxymethyl dextran without goat anti-mouse IgG in flow cell 1 and 3 was used as the reference surface. For kinetic analysis, rate equations derived from the 1:1 Langmuir binding model were fitted simultaneously to association and dissociation phases of all eight injections (using global fit analysis) with the use of Biaevaluation 4.0.1 software. Purified antibodies were diluted in HEPES-buffered saline for capture across goat anti-mouse IgG specific reaction surfaces. Mouse antibodies to be captured as a ligand (25 μg/ml) were injected over reaction matrices at a flow rate of 5 μl/min. The association and dissociation rate constants, kₒₙ (unit M⁻¹s⁻¹) and koff (unit s⁻¹) were determined under a continuous flow rate of 25 μl/min Rate constants were derived by making kinetic binding measurements at ten different antigen concentrations ranging from 10-200 nM. […] Binding is recorded as a function of time and kinetic rate constants are calculated.

[2] = molecular target: T2, mouse IL-13 (mouse, UniProt P20109 26-131, limits assumed); experiment: SPR (Biacore)
T2 construct: also called mIL-13; murine IL-13
T2 sequence (looked up): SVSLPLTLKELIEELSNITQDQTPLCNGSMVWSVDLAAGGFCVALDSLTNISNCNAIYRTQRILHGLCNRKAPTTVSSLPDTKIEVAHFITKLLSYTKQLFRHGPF

[3] = molecular target: T2, mouse IL-13; experiment: cell-based or functional assay
[4] = molecular target: T2, mouse IL-13; experiment: BIACORE against recombinant mouse IL-13
[5] = molecular target: T3, human IL-13 wild type (human, UniProt P35225 35-146); experiment: SPR (Biacore), mAb captured, IL-13 as analyte
T3 construct: also called h IL-13; h IL-13 wt

[6] = molecular target: cynomolgus IL-13 (cynomolgus, UniProt Q0PW92 21-132); experiment: cell-based or functional assay
[7] = molecular target: T1, human IL-13 variant (R130Q); experiment: cell-based or functional assay
[8] = molecular target: T3, human IL-13 wild type; experiment: ELISA-based receptor binding assay, blocking biotin-IL-13 binding to IL-13Rα2/Fc
Description: After 16 hr, coating solution was removed by flicking plate contents in sink, and plates were washed and blocked 4 times with Superblock Blocking Buffer (240 ul/well) (Pierce). […] Plates were washed 5 times with 300 ul 0.1% PBST, and then 100 ul of 1:5000 diluted mouse anti-Biotin MAb (Jackson Immunosciences) was added and incubated at RT for 45 min. The plates were washed again 5 times with 300 ul 0.1% PBST, followed by addition of TMB substrate reagent (100 ul/well, Pharmingen); developed for 5 min, and stopped by adding 50 ul of 2M H2SO4 (VWR). ODs at 450 nm were determined by spectrophotometry.

[9] = molecular target: T1, human IL-13 variant (R130Q); experiment: SPR (Biacore)
[10] = molecular target: T3, human IL-13 wild type; experiment: SPR (Biacore)
[11] = molecular target: T1, human IL-13 variant (R130Q); experiment: cell-based or functional assay; remark: listed apart in the source
[12] = molecular target: T3, human IL-13 wild type; experiment: cell-based or functional assay
[13] = molecular target: T3, human IL-13 wild type; experiment: receptor binding assays (cell surface-based on IL-13Rα2-transfected COS cells and ELISA-based with IL-13Rα2/Fc), 13C5.5 blocking human IL-13 binding to human IL-13Rα2; range told over both assays
[14] = molecular target: T3, human IL-13 wild type; experiment: cell surface-based receptor binding assay, blocking 125I-IL-13 binding to IL-13Rα2-transfected COS cells
Description: Recombinant human IL-13 was labeled with ¹²⁵I (Amersham, Arlington Heights, Ill.), using IODO-GEN reagent (Pierce, Rockford, Ill.) as previously described (Obiri N I et al., (1995) J Biol Chem. 270:8797-8804). […] Transfected COS cells (5×10^5 cells in 100 μL binding buffer: RPMI 1640 containing 0.2% human serum albumin and 10 mmol HEPES) were incubated with 1.0 nM ¹²⁵I-IL-13 with or without 1 uM unlabeled IL-13 at 4° C. for 2 hours. Cell-bound ¹²⁵I-IL-13 was separated from unbound ¹²⁵I-IL-13 by centrifugation through a phthalate oil gradient, and radioactivity was determined with a gamma counter (Wallac, Gaithersburg, Md.).

[15] = molecular target: T3, human IL-13 wild type; experiment: SPR (Biacore); remark: listed apart in the source
Description: as §1

[16] = molecular target: T2, mouse IL-13; experiment: indirect ELISA, captured mAb, biotinylated mouse IL-13
[17] = molecular target: T1, human IL-13 variant (R130Q); experiment: SPR (Biacore), mAb captured, IL-13 as analyte
[18] = molecular target: T3, human IL-13 wild type; experiment: blocking of IL-13 binding to IL-13Rα2, receptor binding assays
[19] = molecular target: T3, human IL-13 wild type; experiment: cell-based or functional assay; remark: listed apart in the source

T3 sequence (P35225 other isoform, or with tags, fused parts or gaps limits assumed): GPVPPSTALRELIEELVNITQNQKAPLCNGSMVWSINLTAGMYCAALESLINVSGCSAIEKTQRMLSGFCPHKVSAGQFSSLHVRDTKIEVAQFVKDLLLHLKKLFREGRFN
T1 sequence (P35225 35-146 limits assumed, stated change not applied): as the sequence (P35225 other isoform, or with tags, fused parts or gaps limits assumed) above, with R110Q counted along it
Chain of cynomolgus IL-13 (Q0PW92 entry or part of it): as the sequence (P35225 other isoform, or with tags, fused parts or gaps limits assumed) above, with G1S, R10K, M42V, S67N, H83R, L100V, R110Q counted along it

B1: 3H7 (antibody, mouse IgG1, V domains shown)
VH: EVQLVESGGGLVKPGGSLKLSCAASGFTFSTYAMSWVRQTPEKRLEWVAGISSGGSYTYYPETMKGRFTISRDNARNTLYLQMSSLRSEDTAIYYCTRGSWGQGTSVTVSS
VL: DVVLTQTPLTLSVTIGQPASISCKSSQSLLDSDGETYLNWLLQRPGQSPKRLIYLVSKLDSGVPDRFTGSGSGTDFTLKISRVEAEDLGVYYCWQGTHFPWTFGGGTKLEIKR
notes: Murine monoclonal; also called mAb 3H7
Q: For B1, which Kd [1] is on record?
A: 0.22 nM

Q: And the koff [1]?
A: 5.58e-05 s⁻¹

Q: What about the kon [1] of the same binder?
A: 254000 M⁻¹ s⁻¹

Q: And the Kd [2]?
A: 12 nM

Q: What about the “IC50, A-549 bioassay against recombinant mouse IL-13” value [3] of the same binder?
A: 2.43 nM

Q: And the Kd [4]?
A: 11.2 nM

Q: Does B1 bind [5]?
A: no binding

Q: And the “Average IC50, IL-13-induced TARC production by A-549 cells” value [6]?
A: 0.797 nM

Q: What about the “Average IC50, IL-13-induced TARC production by A-549 cells” value [7] of the same binder?
A: 0.58 nM

B2: 13C5.5 (antibody, human IgG1, V domains shown)
VH: EVTLRESGPGLVKPTQTLTLTCTLYGFSLSTSDMGVDWIRQPPGKGLEWLAHIWWDDVKRYNPALKSRLTISKDTSKNQVVLKLTSVDPVDTATYYCARTVSSGYIYYAMDYWGQGTLVTVSS
VL: DIQMTQSPSSLSASVGDRVTISCRASQDIRNYLNWYQQKPGKAPKLLIFYTSKLHSGVPSRFSGSGSGTDYTLTISSLQPEDIATYYCQQGNTLPLTFGGGTKVEIK
notes: Humanized; The light chain row is printed 'VL 1305.5'; also called humanized 13C5; recombinant humanized antibody 13C5.5
Q: For B2, which IC50 [8] is on record?
A: 1.1 nM

Q: And the Kd [9]?
A: 0.05 nM

Q: And the Kd [10]?
A: 0.07 nM

Q: What about the “Potency (IC50), A-549 bioassay” value [11] of the same binder?
A: 0.069 nM

Q: What about the “Potency (IC50), A-549 bioassay” value [12] of the same binder?
A: 0.124 nM

Q: And the IC50 [13]?
A: ≥ 1 nM and ≤ 3 nM

Q: What about the IC50 [14] of the same binder?
A: 2.7 nM

Q: And the Kd [15]?
A: 0.0701 nM

Q: And the koff [15]?
A: 0.000176 s⁻¹

Q: And the kon [15]?
A: 2.51e+06 M⁻¹ s⁻¹

B3: 9C11 (antibody, V domains shown)
VH: QVRLQQPGAELVRPGASVKLSCKASGYTFTSSWIHWVNQRPGQGLEWIGMIHPSDSETRLNQKFKDKATLTVDKSSSTAYMQLSSPTSEDSAVYYCASTATDFDYWGQGTTLTVSS
VL: DVVLTQTPLSLPVNIGDQASISCRSTQTLLNSDGFTYLDWYLQKPGQSPQLLIYLVSNRFSGVPDRFSGSGSGTDFTLKISRVEAEDLGVYYCFQNNYLPLTFGAGTKLELKR
Q: Which results are given for B3?
A: binding result [16]: no binding (tested: 0.1 to 100 ng/ml); Kd [17]: 0.0921 nM; koff [17]: 5.86e-05 s⁻¹; kon [17]: 637000 M⁻¹ s⁻¹; Kd [5]: 0.112 nM; koff [5]: 6.5e-05 s⁻¹; kon [5]: 579000 M⁻¹ s⁻¹; IC50 [18]: > 10 nM; Average IC50, IL-13-induced TARC production by A-549 cells [6]: 0.64 nM; Average IC50, IL-13-induced TARC production by A-549 cells [7]: 0.17 nM; Average IC50, IL-13-induced TARC production by A-549 cells [19]: 0.106 nM
